{
  "source": "the DeepSol protein solubility set",
  "data": [
    {"assay": "soluble on expression in E. coli; label from the status in PepcDB or PDB records", "values": [
      {"sequence": "MLAQLTISNFAIVRELEIDFHSGMTVITGETGAGKSIAIDALGLCLGGRAEADMVRTGAARADLCARFSLKDTPAALRWLEENQLEDGHECLLRRVISSDGRSRGFINGTAVPLSQLRELGQLLIQIHGQHAHQLLTKPEHQKFLLDGYANETSLLQEMTARYQLWHQSCRDLAHHQQLSQERAARAELLQYQLKELNEFNPQPGEFEQIDEEYKRLANSGQLLTTSQNALALMADGEDANLQSQLYTAKQLVSELIGMDSKLSGVLDMLEEATIQIVEASDELRHYCDRLDLDPNRLFELEQRISKQISLARKHHVSPETLPQYYQSLLEEQQQLDDQADSQETLALAVTKHHQQALETARALHQQRQHYAEELAQLITDSMHALSMPHGQFTIDVKFDEHHLGADGADRIEFRVTTNPGQPMQPIAKVASGGELSRIALAIQVITARKMETPALIFDEVDVGISGPTAAVVGKLLRQLGESTQVMCVTHLPQVAGCGHQHYFVSKETDGAMTETHMQSLNKKTRLQELARLLGGSEVTRNTLANAKELLAA", "soluble on expression in E. coli": "not soluble"},
      {"sequence": "MGSDKIHHHHHHMDKVIEMKGITKVFPGTIANDNVNFELTRGETHVLLGENGAGKTTLMNILYGLYHPEKGQIIVNGKSVQFSGPNDAIKSGIGMVHQHFMLVNNFTVAENIVLGMEPKNGIRVDMGKAINNVKELSDKYGFAIEPKAIIEDISVGQQQKVEILKALYRGADVLILDEPTAVLTPQEIDELGDIIENLKKEGKSVILITHKLKEVMKMSDRVTIIRRGKVTGTVNTKDTSIDELAELMVGRKVNLTIAKKESKAGKEVLRVEELKVKDHRDVLVVKGINLVVNSGEILGIAGVDGNGQSEFIEALTGLKKVESGNVILNGKNISGKSAKYITNSGVGHIPEDRHKRGLVLKYSLYENSILGMHHRKPFSRMFNINYKAVRKHCKKLIEEFDIRTPNDEVNAAALSGGNQQKLVVAREISRNPDLLIASQPTRGLDVGAIEYIHKRIVEERDKGKAVLLVSLELDEILALSDRIAVMYDGKIVDVLERKDADEKKLGILMAGGNLDKKESVNTVEER", "soluble on expression in E. coli": "not soluble"},
      {"sequence": "MGIMEAERKTTGWAARDPSGILSPYTYTLRETGPEDVNIRIICCGICHTDLHQTKNDLGMSNYPMVPGHEVVGEVVEVGSDVSKFTVGDIVGVGCLVGCCGGCSPCERDLEQYCPKKIWSYNDVYINGQPTQGGFAKATVVHQKFVVKIPEGMAVEQAAPLLCAGVTVYSPLSHFGLKQPGLRGGILGLGGVGHMGVKIAKAMGHHVTVISSSNKKREEALQDLGADDYVIGSDQAKMSELADSLDYVIDTVPVHHALEPYLSLLKLDGKLILMGVINNPLQFLTPLLMLGRKVITGSFIGSMKETEEMLEFCKEKGLSSIIEVVKMDYVNTAFERLEKNDVRYRFVVDVEGSNLDA", "soluble on expression in E. coli": "soluble"},
      {"sequence": "QSQSNQATPSKVVSGEVNAASFAQFSNAFIDDLWQLSPTWALYSGKHVNDGYLEIPDEAGRVKTLAFVKAQQAKLKQFELKSLTSNETIDYHLIDNLLSSMAWDITRFKSWQWDPSSYNVAGGFAQIINENFAPLDDRLRSVLARMENIPAYYAAARGNISQPTLEHTELAVLQNQGAFSVFSDDLLKQVADSGLSDAEKALFKTRFDIASKAINEHISWLNAQVSQLKKEGARSFRIGEELYEQKFAFDIQAGMTAKQLYQKAMVDKDRVQGEMAKITDKLWPKYFTTPKPSDNKIAIRQLIDKLSTKHVKRDDFVSEVRKQIPELIEFVNQKNIVTLDPKKPLVVRETPEYMRGYAGASISAPGPYDKLGNTYYNVTPLDGMSNESAESYLREYNHWILQILNIHEAIPGHYTQLVYSNESPSLVKSLFGNGAMVEGWAVYTERMMLEEGYGNFEPEMWLMYYKWNLRVICNTILDYSIHVKGMTEEQAIALMMDEAFQQRAEAEGKWRRATLSQVQLTSYYSGYREIYDFREEYKQLKGKDFDLKAFHEKFLSYGSAPVKYIRQLMLE", "soluble on expression in E. coli": "soluble"},
      {"sequence": "MGSDKIHHHHHHMHTVAVERAARYDPSEVAEAMDRALASLGGMDTFVRPGERVLIKPNMLAAKAPERAVTTHPEVLRAVIRLVRKAGGIPLVGDSPGIGGFRAVAEKSGMAAVVREAGAELVPFDEAVAVPGSGLFRRMDVARPYLEADRLINLPKLKTHEMMTMTCAVKNLFGAVVGTAKAGWHLKAGADRELFARLLLEIYLLRPPDLTIVDGIVAMEGDGPGSGDPRPMGLILAGANAVAVDVVAAELAGIPKQLLWVERAAERLGIDGWDRSRIATVGLPPDDARVPDFRLPHLSDVQFGIPGFLKNRLRHHLTARPVPNPEGCHLCGACLDACPPRAISVRDGRLHFDYHACIRCFCCRELCPDGSLGVRDGVLLKLLKKFKE", "soluble on expression in E. coli": "not soluble"},
      {"sequence": "MGSSHHHHHHSSGLVPRGSHMLEADPLLAQLKQQLHSQTPRAEGVVKATEKGFGFLEVDAQKSYFIPPPQMKKVMHGDRIIAVIHSEKERESAEPEELVEPFLTRFVGKVQGKNDRLAIVPDHPLLKDAIPCRAARGLNHEFKEGDWAVAEMRRHPLKGDRSFYAELTQYITFGDDHFVPWWVTLARHNLEKEAPDGVATEMLDEGLVREDLTALDFVTIDSASTEDMNDALFAKALPDDKLQLIVAIADPTAWIAEGSKLDKAAKIRAFTNYLPGFNIPMLPRELSDDLCSLRANEVRPVLACRMTLSADGTIEDNIEFFAATIESKAKLVYDQVSDWLENTGDWQPESEAIAEQVRLLAQICQRRGEWRHNHALVFKDRPDYRFILGEKGEVLDIVAEPRRIANRIVEEAMIAANICAARVLRDKLGFGIYNVHMGFDPANADALAALLKTHGLHVDAEEVLTLDGFCKLRRELDAQPTGFLDSRIRRFQSFAEISTEPGPHFGLGLEAYATWTSPIRKYGDMINHRLLKAVIKGETATRPQDEITVQMAERRRLNRMAERDVGDWLYARFLKDKAGTDTRFAAEIVDISRGGMRVRLVDNGAIAFIPAPFLHAVRDELVCSQENGTVQIKGETVYKVTDVIDVTIAEVRMETRSIIARPVA", "soluble on expression in E. coli": "soluble"},
      {"sequence": "MGSDKIHHHHHHMEVLYRKYRPKTFSEVVNQDHVKKAIIGAIQKNSVAHGYIFAGPRGTGKTTLARILAKSLNCENRKGVEPCNSCRACREIDEGTFMDVIELDAASNRGIDEIRRIRDAVGYRPMEGKYKVYIIDEVHMLTKEAFNALLKTLEEPPSHVVFVLATTNLEKVPPTIISRCQVFEFRNIPDELIEKRLQEVAEAEGIEIDREALSFIAKRASGGLRDALTMLEQVWKFSEGKIDLETVHRALGLIPIQVVRDYVNAIFSGDVKRVFTVLDDVYYSGKDYEVLIQEAVEDLVEDLERERGVYQVSANDIVQVSRQLLNLLREIKFAEEKRLVCKVGSAYIATRFSTTNVQENDVREKNDNSNVQQKEEKKETVKAKEEKQEDSEFEKRFKELMEELKEKGDLSIFVALSLSEVQFDGEKVIISFDSSKAMHYELMKKKLPELENIFSRKLGKKVEVELRLMGKEETIEKVSQKILRLFEQEG", "soluble on expression in E. coli": "not soluble"},
      {"sequence": "MAHHHHHHSLCKAFCSCYSYHYHHREKMGIKEYYDKLAKSYDKLYKNKYMRIVEREIIQKEIKDGDFVLDIGCGTGEQLKILNNAVGLDISLEMAKIAKNKTNKPVVVANAEFLPFKNKSFDKAISFFGALNHCNLKRALREVNRVLKDDGIFIFTVANIYDIKWIIKNILKGNFKKVKNAMKKRKGTITKVIDGEKIKVKTRFYDFKEVEDALKKEGFEVVYTFGTNITNSPLDKFIYKSFLKNFASYIGFVAKKVKNREG", "soluble on expression in E. coli": "not soluble"},
      {"sequence": "MPGAVDFKERISRQRPHDRETYGHAGNTDLQDIVYQLESDRGRIVNSAAVRRLQQKTQVFPLERNAAVRSRLTHSLEVQQTGRFIVRTLFRQLGPRAAEVGLDGLEGALESLVEMACLMHDVGNPPFGHFGEYAINDWFERNLDALFERRIPPGQGDGLLQQRMLTDLKHFEGNAQAIRLVVKLLRLNLTYTQTAGLLKYVRPAYEPKPDKAAANHYLNKKPGFYLSEEAFVDELRRVLGMRPGTRHPVAYIMEAADDISYCLADIEDSVEKGILDIRQLADLLVKKFAVHHSPDAPIPGDADNMSFQRMVDYSLEKAEREPINKVSEFFIRLRVKMIHPLVQHAAQQFIDNFEAVHAGTLGRALMEDGSLPHAIVQTFKDVAMEWVFCHPEVETLELQGYRIIQGLLDFYAPLLRLPAEEFQALAEGRQAAAPHPQLLVRRLPSQQIKAYLEAMKGVAEDPLQRQWEFYHRCRMLQDFVSGMTDQHAQDEYRALSAL", "soluble on expression in E. coli": "not soluble"},
      {"sequence": "MSRFPRRFIDDSSMEDAGISLCPSIHYRPINPNDLDRLEQIHRDIFPIKYESEFFQSVVNGVDIVSWAAVDRSRPDDHSDELIGFVTAKFVLAKDSEIDDLIHYDSSKGEETLIYILTLGVVETYRNRGIAMSLISEVIKYASGLSVCRGVYLHVIAHNNAAICLYKRLMFRCVRRLHGFYLINRHHFDAFLFVYFINGSRTPCSPLEVAMFVVNYMKSGIKSVASKLANKDEKGLKWLFCKDTDCV", "soluble on expression in E. coli": "soluble"},
      {"sequence": "MVLGEYYAVAGHIGFGGKADARHMGNDPRRALVHPPFLPDFGQHIFFHRALEPENRWKRMAGRPRTSAARAFCRQ", "soluble on expression in E. coli": "not soluble"},
      {"sequence": "SLQCLRFPGLALPHTRAPSPLGPTRDPVATFLETCREPGSQPAGPASLRAEYLPPSVASIKVSAELLRAALKDGHSGVPLCCATLQWLLAENAAVDVVRARALSSIQGVAPDGANVHLIVREVAMTDLCPAGPIQAVEIQVESSSLADICRAHHAVVGRMQTMVTEQAAQGSSAPDLRVQYLRQIHANHETLLREVQTLRDRLCTEDEASSCATAQRLLQVYRQLRHPSLILL", "soluble on expression in E. coli": "soluble"},
      {"sequence": "MRKERRMIKLAIFDMDGTLTDEPSSWEYVHRRLHTDNHMNFRLYRNGFISYEEFFRSDVLAWLRMHPRLKKDDIAGILRDIKLRDGSSEVVNGLKERGLITAVVSGGISWLCDILNEYMQIDYNLSNVIATDEGGFVQPWGYIRVIPERKNIAVKSLQSMLHISKDETISIGDSMENGMIHINSSKAYIIGGKGRHGEIPLGNNIRNLLSYI", "soluble on expression in E. coli": "not soluble"},
      {"sequence": "MEEEHEEESHLSQSDTVGSAIVEDGPGKEYEIYIKNEELVDKLKLLNYEDGFLKLGVVYKPILKHYFVKSKNVGEQFFLFTSLAAWLIKKSGDESYNMPQEFDDPNSTLANIMAAAKNKGIATDFTAAKLKSGAGENVIFILNSLADASLVHVGFQWQKMIPPKEEDEDTAVDEQDEDDDNDDIVEEPMNFLDDDDDDNVIEIDLKAQGLATESKNPLQSVLQSNTDAITWKQEVERVAPQLKITLKQDAKDWRLHLEQMNSMHKNVEQKVGNVGPYLDNMSKDIAKALERIASREKSLNSQLASMMSKFRRATDTRAELREKYKAASVGVSSRTETLDRISDDIEQLKQQIEEQGAKSSDGAPLVKIKQAVSKLEEELQTMNVQIGVFEQSILNTYLRDHFNFSANLLNIM", "soluble on expression in E. coli": "soluble"},
      {"sequence": "AICCQVDNCGADLSKVKDYHRRHKVCEIHSKATTALVGGIMQRFCQQCSRFHVLEEFD", "soluble on expression in E. coli": "soluble"},
      {"sequence": "MSLTTIDPRSELVDGRRRAGARVDAVGAAALLSAAARVGVVCHVHPDADTIGAGLALALVLDGCGKRVEVSFAAPATLPESLRSLPGCHLLVRPEVMRRDVDLVVTVDIPSVDRLGALGDLTDSGRELLVIDHHASNDLFGTANFIDPSADSTTTMVAEILDAWGKPIDPRVAHCIYAGLATDTGSFRWASVRGYRLAARLVEIGVDNATVSRTLMDSHPFTWLPLLSRVLGSAQLVSEAVGGRGLVYVVVDNREWVAARSEEVESIVDIVRTTQQAEVAAVFKEVEPHRWSVSMRAKTVNLAAVASGFGGGGHRLAAGYTTTGSIDDAVASLRAALGEGHHHHHH", "soluble on expression in E. coli": "soluble"},
      {"sequence": "MSLVFDTHLHTLFSTDSKMNIEEAIDAGEKKNLGIIITEHIDLNYPVKGEFVFDIDKYFKEYNKYRSNKVLLGVEIGMGEEIKEQNKSINDKYEFDYVLGSIHLLNGLDLYEKTIYKSSPKKEVFEMYFKTMLACLRCHEYIDSLAHIDYISRYAAYHDGEIYYNEYSDYIDEVLKFIVDREIVIEINTRRLNKKEVCENLMPIYKRYSELGGRFVTIGSDSHYKDSIGLNFKNALKMAENCNLKPVFFEKRLMKYAEGHHHHHH", "soluble on expression in E. coli": "soluble"}
    ]}
  ]
}
